This is an account of results in PMC3735172.

As a reminder, the Kd is a measure of binding affinity in units of concentration. A lower Kd goes with higher affinity.

Common to all, as to assay: EMSA
In general terms: A gel shift assay detects complexes by their altered migration in electrophoresis.

One data set addresses T1, MtAlba(R39) (Methanothermobacter thermautotrophicus, UniProt O27527 1-91, I39R).
T1 sequence: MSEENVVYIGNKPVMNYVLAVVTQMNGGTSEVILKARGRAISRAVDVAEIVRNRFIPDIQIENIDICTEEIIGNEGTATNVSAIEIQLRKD

Data set [1] has as its target T2, MtAlba(I39) (Methanothermobacter thermautotrophicus …, UniProt O27527 1-91).
T2 sequence: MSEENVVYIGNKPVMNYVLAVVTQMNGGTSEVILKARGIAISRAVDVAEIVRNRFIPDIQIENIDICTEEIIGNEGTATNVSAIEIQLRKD

In data set [2] the target is T2, MtAlba(I39). This is another data set of the same source.

Like-named read-outs stand apart in the source and are kept apart here.

With UUAAAGCCCGUGGAAGAGCC (ssRNA) [ssRNA], the Kd with MtAlba(R39) was around 1500 nM. Besides, in the data set with MtAlba(I39) [1], the binding result is “no binding”.

B1: 36 bp dsDNA (dsDNA)
DNA 1: ATCAATTAAAGCGTTCTACGGCGTTTTAGATCTGAT
DNA 2: ATCAGATCTAAAACGCCGTAGAACGCTTTAATTGAT
As to B1, in the data set with MtAlba(R39), the equilibrium dissociation constant (Kd) was around 200 nM. In addition, the binding result with MtAlba(I39) [2] is “no binding”.

B2: tRNAPro (structured_RNA)
RNA: GGGCGAGUAGCGCAGCUUGGUAGCGCAACUGGUUUGGGACCAGUGGGUCGGAGGUUCGAAUCCUCUCUCGUCCACCA
The molecule B2 came in with a Kd with MtAlba(R39) of around 1000 nM. Besides, in the data set with MtAlba(I39) [1], the binding result is listed as “no binding”.
